Experimental data published in the supplement of paper PMC9112550, “Optimization of the antimicrobial peptide Bac7 by deep mutational scanning” (BMC Biology, 2022).

Test system: Escherichia coli TOP10
Assay: shrunken log2 fold change of peptide-encoding DNA abundance (4.5 h post-induction vs induction); higher = less antimicrobial activity (less host growth inhibition)
Conditions: time post-induction: 4.5 h; library: site-saturation at positions 5, 18, 19, 20
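Further: peptides expressed intracellularly from a pBAD plasmid library in pooled LB shake-flask culture, induced with 0.3% L-arabinose, DNA abundance read by NGS, three biological replicates, DESeq2 with apeglm shrinkage.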

RRIRSRPPRLPRPRPRPADPPRP
shrunken log2 fold change: 0.0724

RRIRSRPPRLPRPRPRPAFHPRP
shrunken log2 fold change: -0.0038

RRIRSRPPRLPRPRPRPAGLPRP
shrunken log2 fold change: -0.0231

RRIRSRPPRLPRPRPRPAHLPRP
shrunken log2 fold change: 0.27

RRIRSRPPRLPRPRPRPAHTPRP
shrunken log2 fold change: -0.379

RRIRSRPPRLPRPRPRPALRPRP
shrunken log2 fold change: 0.169

RRIRSRPPRLPRPRPRPAMVPRP
shrunken log2 fold change: -0.274

RRIRSRPPRLPRPRPRPANGPRP
shrunken log2 fold change: -0.0714

RRIRSRPPRLPRPRPRPANMPRP
shrunken log2 fold change: -0.289

RRIRSRPPRLPRPRPRPANNPRP
shrunken log2 fold change: -0.367

RRIRSRPPRLPRPRPRPAPWPRP
shrunken log2 fold change: 0.528

RRIRSRPPRLPRPRPRPAQCPRP
shrunken log2 fold change: 0.0899

RRIRSRPPRLPRPRPRPAQSPRP
shrunken log2 fold change: 0.234

RRIRSRPPRLPRPRPRPARIPRP
shrunken log2 fold change: 0.0694

RRIRSRPPRLPRPRPRPARRPRP
shrunken log2 fold change: 0.0588

RRIRSRPPRLPRPRPRPARYPRP
shrunken log2 fold change: -0.0163

RRIRSRPPRLPRPRPRPATHPRP
shrunken log2 fold change: -0.0838

RRIRSRPPRLPRPRPRPAVTPRP
shrunken log2 fold change: 0.293

RRIRSRPPRLPRPRPRPAWKPRP
shrunken log2 fold change: 0.186

RRIRSRPPRLPRPRPRPAWTPRP
shrunken log2 fold change: 0.0161

RRIRSRPPRLPRPRPRPCAGPRP
shrunken log2 fold change: -0.0708

RRIRSRPPRLPRPRPRPCCFPRP
shrunken log2 fold change: -0.0695

RRIRSRPPRLPRPRPRPCDRPRP
shrunken log2 fold change: -0.00911

RRIRSRPPRLPRPRPRPCDWPRP
shrunken log2 fold change: 0.0154

RRIRSRPPRLPRPRPRPCEHPRP
shrunken log2 fold change: 0.135

RRIRSRPPRLPRPRPRPCFCPRP
shrunken log2 fold change: -0.489

RRIRSRPPRLPRPRPRPCGIPRP
shrunken log2 fold change: -0.0619

RRIRSRPPRLPRPRPRPCGPPRP
shrunken log2 fold change: 0.118

RRIRSRPPRLPRPRPRPCHTPRP
shrunken log2 fold change: 0.00383

RRIRSRPPRLPRPRPRPCIWPRP
shrunken log2 fold change: -0.121

RRIRSRPPRLPRPRPRPCLAPRP
shrunken log2 fold change: 0.0253

RRIRSRPPRLPRPRPRPCMEPRP
shrunken log2 fold change: -0.292

RRIRSRPPRLPRPRPRPCMPPRP
shrunken log2 fold change: -0.375

RRIRSRPPRLPRPRPRPCNFPRP
shrunken log2 fold change: -0.702

RRIRSRPPRLPRPRPRPCNRPRP
shrunken log2 fold change: 0.0326

RRIRSRPPRLPRPRPRPCNYPRP
shrunken log2 fold change: -0.455

RRIRSRPPRLPRPRPRPCPAPRP
shrunken log2 fold change: -0.271

RRIRSRPPRLPRPRPRPCPDPRP
shrunken log2 fold change: -0.388

RRIRSRPPRLPRPRPRPCPPPRP
shrunken log2 fold change: -0.244

RRIRSRPPRLPRPRPRPCQHPRP
shrunken log2 fold change: -0.128

RRIRSRPPRLPRPRPRPCREPRP
shrunken log2 fold change: 0.157

RRIRSRPPRLPRPRPRPCRPPRP
shrunken log2 fold change: -0.584

RRIRSRPPRLPRPRPRPCSGPRP
shrunken log2 fold change: -0.0317

RRIRSRPPRLPRPRPRPCTIPRP
shrunken log2 fold change: -0.148

RRIRSRPPRLPRPRPRPCTLPRP
shrunken log2 fold change: -0.399

RRIRSRPPRLPRPRPRPCTWPRP
shrunken log2 fold change: -0.125

RRIRSRPPRLPRPRPRPCYDPRP
shrunken log2 fold change: -0.438

RRIRSRPPRLPRPRPRPCYVPRP
shrunken log2 fold change: -0.338

RRIRSRPPRLPRPRPRPDEPPRP
shrunken log2 fold change: 0.0784

RRIRSRPPRLPRPRPRPDERPRP
shrunken log2 fold change: 0.1

RRIRSRPPRLPRPRPRPDFPPRP
shrunken log2 fold change: 0.0768

RRIRSRPPRLPRPRPRPDFWPRP
shrunken log2 fold change: 0.506

RRIRSRPPRLPRPRPRPDHKPRP
shrunken log2 fold change: -0.18

RRIRSRPPRLPRPRPRPDINPRP
shrunken log2 fold change: -0.253

RRIRSRPPRLPRPRPRPDKLPRP
shrunken log2 fold change: -0.266

RRIRSRPPRLPRPRPRPDKMPRP
shrunken log2 fold change: -0.15

RRIRSRPPRLPRPRPRPDKSPRP
shrunken log2 fold change: -0.2

RRIRSRPPRLPRPRPRPDLPPRP
shrunken log2 fold change: -0.246

RRIRSRPPRLPRPRPRPDLQPRP
shrunken log2 fold change: -0.193

RRIRSRPPRLPRPRPRPDLVPRP
shrunken log2 fold change: 0.0452

RRIRSRPPRLPRPRPRPDNGPRP
shrunken log2 fold change: -0.232

RRIRSRPPRLPRPRPRPDQFPRP
shrunken log2 fold change: -0.167

RRIRSRPPRLPRPRPRPDQSPRP
shrunken log2 fold change: 0.217

RRIRSRPPRLPRPRPRPDRSPRP
shrunken log2 fold change: -0.0187

RRIRSRPPRLPRPRPRPDTWPRP
shrunken log2 fold change: -0.0193

RRIRSRPPRLPRPRPRPDVDPRP
shrunken log2 fold change: 0.0112

RRIRSRPPRLPRPRPRPDVFPRP
shrunken log2 fold change: -0.098

RRIRSRPPRLPRPRPRPDYEPRP
shrunken log2 fold change: -0.221

RRIRSRPPRLPRPRPRPDYRPRP
shrunken log2 fold change: -0.0371

RRIRSRPPRLPRPRPRPDYSPRP
shrunken log2 fold change: -0.464

RRIRSRPPRLPRPRPRPDYWPRP
shrunken log2 fold change: 0.0977

RRIRSRPPRLPRPRPRPDYYPRP
shrunken log2 fold change: -0.831

RRIRSRPPRLPRPRPRPECAPRP
shrunken log2 fold change: 0.784

RRIRSRPPRLPRPRPRPECHPRP
shrunken log2 fold change: 0.411

RRIRSRPPRLPRPRPRPECMPRP
shrunken log2 fold change: 0.00574

RRIRSRPPRLPRPRPRPEDNPRP
shrunken log2 fold change: 0.24

RRIRSRPPRLPRPRPRPEEDPRP
shrunken log2 fold change: -0.00277

RRIRSRPPRLPRPRPRPEFIPRP
shrunken log2 fold change: 0.162

RRIRSRPPRLPRPRPRPEFVPRP
shrunken log2 fold change: 0.00503

RRIRSRPPRLPRPRPRPEGFPRP
shrunken log2 fold change: 0.272

RRIRSRPPRLPRPRPRPEGMPRP
shrunken log2 fold change: 0.392

RRIRSRPPRLPRPRPRPEHHPRP
shrunken log2 fold change: -0.153

RRIRSRPPRLPRPRPRPEILPRP
shrunken log2 fold change: -0.0652

RRIRSRPPRLPRPRPRPEINPRP
shrunken log2 fold change: 0.0112

RRIRSRPPRLPRPRPRPEKAPRP
shrunken log2 fold change: -0.193

RRIRSRPPRLPRPRPRPEKWPRP
shrunken log2 fold change: 0.0431

RRIRSRPPRLPRPRPRPELAPRP
shrunken log2 fold change: 0.929

RRIRSRPPRLPRPRPRPELMPRP
shrunken log2 fold change: 0.469

RRIRSRPPRLPRPRPRPENFPRP
shrunken log2 fold change: -0.0342

RRIRSRPPRLPRPRPRPEPCPRP
shrunken log2 fold change: 0.108

RRIRSRPPRLPRPRPRPEQDPRP
shrunken log2 fold change: 0.206

RRIRSRPPRLPRPRPRPEQSPRP
shrunken log2 fold change: 0.22

RRIRSRPPRLPRPRPRPERNPRP
shrunken log2 fold change: -0.098

RRIRSRPPRLPRPRPRPESCPRP
shrunken log2 fold change: 0.181

RRIRSRPPRLPRPRPRPETLPRP
shrunken log2 fold change: 0.0893

RRIRSRPPRLPRPRPRPEYDPRP
shrunken log2 fold change: 0.0801

RRIRSRPPRLPRPRPRPEYEPRP
shrunken log2 fold change: -0.0387

RRIRSRPPRLPRPRPRPFACPRP
shrunken log2 fold change: -0.655

RRIRSRPPRLPRPRPRPFAYPRP
shrunken log2 fold change: -0.348

RRIRSRPPRLPRPRPRPFCHPRP
shrunken log2 fold change: -0.162

RRIRSRPPRLPRPRPRPFDGPRP
shrunken log2 fold change: 0.0042

RRIRSRPPRLPRPRPRPFFKPRP
shrunken log2 fold change: -0.192

RRIRSRPPRLPRPRPRPFHEPRP
shrunken log2 fold change: -0.263

RRIRSRPPRLPRPRPRPFIFPRP
shrunken log2 fold change: -0.343

RRIRSRPPRLPRPRPRPFIIPRP
shrunken log2 fold change: -0.34

RRIRSRPPRLPRPRPRPFKHPRP
shrunken log2 fold change: -0.195

RRIRSRPPRLPRPRPRPFMTPRP
shrunken log2 fold change: -0.328

RRIRSRPPRLPRPRPRPFMYPRP
shrunken log2 fold change: -0.513

RRIRSRPPRLPRPRPRPFNCPRP
shrunken log2 fold change: -0.441
